Results on 6 molecules are retold here after patent US20210032299A1 (Eli Lilly, published 2021).

Test [1] has as its target T1, human glucose-dependent insulinotropic polypeptide (GIP) receptor (human, UniProt P48546 22-466).
T1 construct: whole, on cells; Assayed as crude membranes of stably transfected CHO cells; also called hGIPR; human GIP receptor
T1 sequence (looked up): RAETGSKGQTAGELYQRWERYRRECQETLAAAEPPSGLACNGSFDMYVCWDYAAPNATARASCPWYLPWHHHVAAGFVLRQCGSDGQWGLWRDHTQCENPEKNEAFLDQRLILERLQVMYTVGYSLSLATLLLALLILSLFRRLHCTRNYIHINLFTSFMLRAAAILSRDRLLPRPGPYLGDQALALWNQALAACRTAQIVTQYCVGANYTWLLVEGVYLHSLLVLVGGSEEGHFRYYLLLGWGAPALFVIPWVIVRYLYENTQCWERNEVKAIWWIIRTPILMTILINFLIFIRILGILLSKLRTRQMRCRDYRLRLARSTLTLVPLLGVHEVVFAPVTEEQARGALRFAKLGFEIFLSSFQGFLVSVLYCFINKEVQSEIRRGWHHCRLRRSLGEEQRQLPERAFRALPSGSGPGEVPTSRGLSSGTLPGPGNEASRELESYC
Kind of test: SPA, displacement of [125I]-GIP from hGIPR membranes, 0.1% bacitracin.

Test [2] concerns the target T2, human glucagon receptor (human, UniProt P47871 26-477).
T2 construct: whole, on cells; Assayed as crude membranes of stably transfected HEK293 cells; also called hGcgR; GcgR
Kind of test: SPA, displacement of [125I]-Gcg from hGcgR membranes, 0.1% bacitracin. In a few lines:
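Binding buffer: 25 mM HEPES pH 7.4, 2.5 mM CaCl₂, 1 mM MgCl₂, 0.003% Tween-20, protease inhibitors without EDTA. Counted by scintillation after 12 h incubation/settling at room temperature. Four-parameter nonlinear fit; Kᵢ given as geometric mean ± SEM of independent replicates run on different days.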
In general terms: In a radioligand displacement assay an active substance lowers the binding of a labelled ligand.

For test [3], the target named is T3, human GLP-1 receptor (human, UniProt P43220 24-463).
T3 construct: whole, on cells; Assayed as crude membranes of stably transfected HEK293 cells; also called hGLP1R; hGLP-1R
Kind of test: SPA, displacement of [125I]-GLP-1 from hGLP-1R membranes, 0.1% bacitracin. In a few lines: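 Binding buffer: 25 mM HEPES pH 7.4, 2.5 mM CaCl₂, 1 mM MgCl₂, 0.1% bacitracin, 0.003% Tween-20, protease inhibitors without EDTA. Four-parameter nonlinear regression; Kᵢ given as geometric mean ± SEM, n = independent replicates run on different days.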

As a reminder, the Ki is a measure of affinity in units of concentration, obtained from inhibition or displacement.

Starred links: 1 amine or outer side, 2 acyl side, 3 side chain; linkers in the order of their positions; H or OH if unused. Non-standard residues stand in square brackets, D forms with d. Groups on a side chain read outwards from the residue. No end group written: not given here. *: point of attachment. C20 diacid = O=C(O)CCCCCCCCCCCCCCCCCCC(=O)*; γGlu = O=C(O)[C@H](CCC(=O)[*:2])N[*:1]; αMeF = C[C@](N)(Cc1ccccc1)C(=O)O; 4Pal = N[C@@H](Cc1ccncc1)C(=O)O; αMeL = CC(C)C[C@](C)(N)C(=O)O; Orn = NCCC[C@H](N)C(=O)O; AEEA = NCCOCCOCC(=O)O; Aib = CC(C)(N)C(=O)O

T2 sequence (P47871 26-477): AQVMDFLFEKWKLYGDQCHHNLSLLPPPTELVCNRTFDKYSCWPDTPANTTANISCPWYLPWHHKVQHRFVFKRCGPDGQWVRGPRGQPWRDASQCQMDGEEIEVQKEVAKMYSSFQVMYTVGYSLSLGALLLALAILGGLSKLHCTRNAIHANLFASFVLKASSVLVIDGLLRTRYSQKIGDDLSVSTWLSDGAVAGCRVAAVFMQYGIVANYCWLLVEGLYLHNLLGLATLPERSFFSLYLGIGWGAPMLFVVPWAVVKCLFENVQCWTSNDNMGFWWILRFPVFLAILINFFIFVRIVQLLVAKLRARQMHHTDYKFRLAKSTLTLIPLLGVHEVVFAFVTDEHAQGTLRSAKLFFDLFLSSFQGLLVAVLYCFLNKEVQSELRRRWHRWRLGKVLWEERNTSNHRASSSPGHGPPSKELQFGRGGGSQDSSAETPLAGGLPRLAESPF

B1: Example 81 (peptide)
peptide: Y[Aib]EGTFISDYSI[αMeL]LD[Orn]K([AEEA-AEEA-γGlu-C20 diacid])HQ[Aib]DFVE[4Pal]LLEQGPSSGAPPPS-NH2
modifications: N-terminus assumed
SMILES: CC[C@H](C)[C@H](NC(=O)[C@H](Cc1ccccc1)NC(=O)[C@@H](NC(=O)CNC(=O)[C@H](CCC(=O)O)NC(=O)C(C)(C)NC(=O)[C@@H](N)Cc1ccc(O)cc1)[C@@H](C)O)C(=O)N[C@@H](CO)C(=O)N[C@@H](CC(=O)O)C(=O)N[C@@H](Cc1ccc(O)cc1)C(=O)N[C@@H](CO)C(=O)N[C@H](C(=O)N[C@@](C)(CC(C)C)C(=O)N[C@@H](CC(C)C)C(=O)N[C@@H](CC(=O)O)C(=O)N[C@@H](CCCN)C(=O)N[C@@H](CCCCNC(=O)COCCOCCNC(=O)COCCOCCNC(=O)CC[C@H](NC(=O)CCCCCCCCCCCCCCCCCCC(=O)O)C(=O)O)C(=O)N[C@@H](Cc1c[nH]cn1)C(=O)N[C@@H](CCC(N)=O)C(=O)NC(C)(C)C(=O)N[C@@H](CC(=O)O)C(=O)N[C@@H](Cc1ccccc1)C(=O)N[C@H](C(=O)N[C@@H](CCC(=O)O)C(=O)N[C@@H](Cc1ccncc1)C(=O)N[C@@H](CC(C)C)C(=O)N[C@@H](CC(C)C)C(=O)N[C@@H](CCC(=O)O)C(=O)N[C@@H](CCC(N)=O)C(=O)NCC(=O)N1CCC[C@H]1C(=O)N[C@@H](CO)C(=O)N[C@@H](CO)C(=O)NCC(=O)N[C@@H](C)C(=O)N1CCC[C@H]1C(=O)N1CCC[C@H]1C(=O)N1CCC[C@H]1C(=O)N[C@@H](CO)C(N)=O)C(C)C)[C@@H](C)CC
As for B1, the inhibition constant (Ki) worked out at 0.0374 nM in test [1], 699 nM in test [2] and 714 nM in test [3].

B2: Example 76 (peptide)
peptide: YXEGTXISDYSIXLDXKHQXDFVEXLLEGGPSSGAPPPS
modifications: Aib2; Iva6; αMeL13; Orn16; K17((2-[2-(2-Amino-ethoxy)-ethoxy]-acetyl)2-(γ-Glu)-CO-(CH2)18-CO2H); Aib20; 4-Pal25; C-terminal amide
Turning to B2, the Ki in test [1] was 0.0293 nM; in test [2], 358 nM; in test [3], 263 nM.

B3: Example 56 (peptide)
peptide: Y[Aib]EGTFISDYSI[αMeL]LDKK([AEEA-AEEA-γGlu-C20 diacid])HQ[Aib]D[αMeF]VE[4Pal]LLAGGPSSGAPPPS-NH2
modifications: N-terminus assumed
SMILES: CC[C@H](C)[C@H](NC(=O)[C@H](Cc1ccccc1)NC(=O)[C@@H](NC(=O)CNC(=O)[C@H](CCC(=O)O)NC(=O)C(C)(C)NC(=O)[C@@H](N)Cc1ccc(O)cc1)[C@@H](C)O)C(=O)N[C@@H](CO)C(=O)N[C@@H](CC(=O)O)C(=O)N[C@@H](Cc1ccc(O)cc1)C(=O)N[C@@H](CO)C(=O)N[C@H](C(=O)N[C@@](C)(CC(C)C)C(=O)N[C@@H](CC(C)C)C(=O)N[C@@H](CC(=O)O)C(=O)N[C@@H](CCCCN)C(=O)N[C@@H](CCCCNC(=O)COCCOCCNC(=O)COCCOCCNC(=O)CC[C@H](NC(=O)CCCCCCCCCCCCCCCCCCC(=O)O)C(=O)O)C(=O)N[C@@H](Cc1c[nH]cn1)C(=O)N[C@@H](CCC(N)=O)C(=O)NC(C)(C)C(=O)N[C@@H](CC(=O)O)C(=O)N[C@@](C)(Cc1ccccc1)C(=O)N[C@H](C(=O)N[C@@H](CCC(=O)O)C(=O)N[C@@H](Cc1ccncc1)C(=O)N[C@@H](CC(C)C)C(=O)N[C@@H](CC(C)C)C(=O)N[C@@H](C)C(=O)NCC(=O)NCC(=O)N1CCC[C@H]1C(=O)N[C@@H](CO)C(=O)N[C@@H](CO)C(=O)NCC(=O)N[C@@H](C)C(=O)N1CCC[C@H]1C(=O)N1CCC[C@H]1C(=O)N1CCC[C@H]1C(=O)N[C@@H](CO)C(N)=O)C(C)C)[C@@H](C)CC
Regarding B3, the Ki in test [1] amounted to 0.0487 nM; in test [2] it was 193 nM; in test [3], 530 nM.

B4: Example 71 (peptide)
peptide: Y[Aib]EGTFISDYSI[αMeL]LDKK([AEEA-AEEA-γGlu-C20 diacid])HQ[Aib]DFVEWLLETGPSSGAPPPS-NH2
modifications: N-terminus assumed
SMILES: CC[C@H](C)[C@H](NC(=O)[C@H](Cc1ccccc1)NC(=O)[C@@H](NC(=O)CNC(=O)[C@H](CCC(=O)O)NC(=O)C(C)(C)NC(=O)[C@@H](N)Cc1ccc(O)cc1)[C@@H](C)O)C(=O)N[C@@H](CO)C(=O)N[C@@H](CC(=O)O)C(=O)N[C@@H](Cc1ccc(O)cc1)C(=O)N[C@@H](CO)C(=O)N[C@H](C(=O)N[C@@](C)(CC(C)C)C(=O)N[C@@H](CC(C)C)C(=O)N[C@@H](CC(=O)O)C(=O)N[C@@H](CCCCN)C(=O)N[C@@H](CCCCNC(=O)COCCOCCNC(=O)COCCOCCNC(=O)CC[C@H](NC(=O)CCCCCCCCCCCCCCCCCCC(=O)O)C(=O)O)C(=O)N[C@@H](Cc1c[nH]cn1)C(=O)N[C@@H](CCC(N)=O)C(=O)NC(C)(C)C(=O)N[C@@H](CC(=O)O)C(=O)N[C@@H](Cc1ccccc1)C(=O)N[C@H](C(=O)N[C@@H](CCC(=O)O)C(=O)N[C@@H](Cc1c[nH]c2ccccc12)C(=O)N[C@@H](CC(C)C)C(=O)N[C@@H](CC(C)C)C(=O)N[C@@H](CCC(=O)O)C(=O)N[C@H](C(=O)NCC(=O)N1CCC[C@H]1C(=O)N[C@@H](CO)C(=O)N[C@@H](CO)C(=O)NCC(=O)N[C@@H](C)C(=O)N1CCC[C@H]1C(=O)N1CCC[C@H]1C(=O)N1CCC[C@H]1C(=O)N[C@@H](CO)C(N)=O)[C@@H](C)O)C(C)C)[C@@H](C)CC
Take B4: the inhibition constant (Ki) is 0.0422 nM in test [1], 102 nM in test [2] and 347 nM in test [3].

B5: Example 72 (peptide)
peptide: Y[Aib]EGTLISDYSI[αMeL]LDKK([AEEA-AEEA-γGlu-C20 diacid])HQ[Aib]EFVEYLLETGPSSGAPPPS-NH2
modifications: N-terminus assumed
SMILES: CC[C@H](C)[C@H](NC(=O)[C@H](CC(C)C)NC(=O)[C@@H](NC(=O)CNC(=O)[C@H](CCC(=O)O)NC(=O)C(C)(C)NC(=O)[C@@H](N)Cc1ccc(O)cc1)[C@@H](C)O)C(=O)N[C@@H](CO)C(=O)N[C@@H](CC(=O)O)C(=O)N[C@@H](Cc1ccc(O)cc1)C(=O)N[C@@H](CO)C(=O)N[C@H](C(=O)N[C@@](C)(CC(C)C)C(=O)N[C@@H](CC(C)C)C(=O)N[C@@H](CC(=O)O)C(=O)N[C@@H](CCCCN)C(=O)N[C@@H](CCCCNC(=O)COCCOCCNC(=O)COCCOCCNC(=O)CC[C@H](NC(=O)CCCCCCCCCCCCCCCCCCC(=O)O)C(=O)O)C(=O)N[C@@H](Cc1c[nH]cn1)C(=O)N[C@@H](CCC(N)=O)C(=O)NC(C)(C)C(=O)N[C@@H](CCC(=O)O)C(=O)N[C@@H](Cc1ccccc1)C(=O)N[C@H](C(=O)N[C@@H](CCC(=O)O)C(=O)N[C@@H](Cc1ccc(O)cc1)C(=O)N[C@@H](CC(C)C)C(=O)N[C@@H](CC(C)C)C(=O)N[C@@H](CCC(=O)O)C(=O)N[C@H](C(=O)NCC(=O)N1CCC[C@H]1C(=O)N[C@@H](CO)C(=O)N[C@@H](CO)C(=O)NCC(=O)N[C@@H](C)C(=O)N1CCC[C@H]1C(=O)N1CCC[C@H]1C(=O)N1CCC[C@H]1C(=O)N[C@@H](CO)C(N)=O)[C@@H](C)O)C(C)C)[C@@H](C)CC
For the molecule B5, the Ki was found to be 0.0594 nM in test [1], 837 nM in test [2] and 437 nM in test [3].

B6: Example 73 (peptide)
peptide: Y[Aib]EGTLISDYSI[αMeL]LDKK([AEEA-AEEA-γGlu-C20 diacid])HQ[Aib]EFVEYLLEGGPSSGAPPPS-NH2
modifications: N-terminus assumed
SMILES: CC[C@H](C)[C@H](NC(=O)[C@H](CC(C)C)NC(=O)[C@@H](NC(=O)CNC(=O)[C@H](CCC(=O)O)NC(=O)C(C)(C)NC(=O)[C@@H](N)Cc1ccc(O)cc1)[C@@H](C)O)C(=O)N[C@@H](CO)C(=O)N[C@@H](CC(=O)O)C(=O)N[C@@H](Cc1ccc(O)cc1)C(=O)N[C@@H](CO)C(=O)N[C@H](C(=O)N[C@@](C)(CC(C)C)C(=O)N[C@@H](CC(C)C)C(=O)N[C@@H](CC(=O)O)C(=O)N[C@@H](CCCCN)C(=O)N[C@@H](CCCCNC(=O)COCCOCCNC(=O)COCCOCCNC(=O)CC[C@H](NC(=O)CCCCCCCCCCCCCCCCCCC(=O)O)C(=O)O)C(=O)N[C@@H](Cc1c[nH]cn1)C(=O)N[C@@H](CCC(N)=O)C(=O)NC(C)(C)C(=O)N[C@@H](CCC(=O)O)C(=O)N[C@@H](Cc1ccccc1)C(=O)N[C@H](C(=O)N[C@@H](CCC(=O)O)C(=O)N[C@@H](Cc1ccc(O)cc1)C(=O)N[C@@H](CC(C)C)C(=O)N[C@@H](CC(C)C)C(=O)N[C@@H](CCC(=O)O)C(=O)NCC(=O)NCC(=O)N1CCC[C@H]1C(=O)N[C@@H](CO)C(=O)N[C@@H](CO)C(=O)NCC(=O)N[C@@H](C)C(=O)N1CCC[C@H]1C(=O)N1CCC[C@H]1C(=O)N1CCC[C@H]1C(=O)N[C@@H](CO)C(N)=O)C(C)C)[C@@H](C)CC
Take B6: the Ki was found to be 0.036 nM in test [1], 292 nM in test [2] and 117 nM in test [3].
